From publication doi:10.1101/738153

Columns and labels:
[1] = biological target: TbBILBO1 N-terminal domain (TbBILBO1-NTD), wild type, residues 1-120 (Trypanosoma brucei); assay: ITC
[2] = biological target: TbBILBO1-NTD Y64A (Trypanosoma brucei); assay: ITC

TbFPC4 C-terminal domain (TbFPC4-CTD), residues 357-404 (domain or fragment)
Kd [1]: 5 µM
fold reduction of binding affinity against wild type [2]: 2.5 fold
